Measured values reported in the RNAGym collection of RNA variant scans (doi:10.1093/molbev/msab373).

B1: Azoarcus group I ribozyme (parent)
chain: GUGCCUUGCGCCGGGAAACCACGCAAGGGAUGGUGUCAAAUUCGGCGAAACCUAAGCGCCCGCCCGGGCGUAUGGCAACGCCGAGCCAAGCUUCGGCGCCUGCGCCGAUGAAGGUGUAGAGACUAGACGGCACCCACCUAAGGCAAACGCUAUGGUGAAGGCAUAGUCCAGGGAGUGGCGAAAGUCACACAAACCGG

Variants of: B1
Assay: reverse-splicing fitness (ratio to wild type); higher = more active; in vitro selection; Mg2+ level not given
Method in brief: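 An in vitro group I ribozyme library with randomized positions was T7-transcribed and gel-purified. In triplicate, 10 pmol RNA in EPPS pH 7.5 was reacted with 50 pmoles of a 30-nt RNA substrate for 1 h at 37 °C across several added MgCl2 levels (1–48 mM), then stopped with EDTA. Products were reverse transcribed from a substrate-complementary primer, PCR-amplified and sequenced (HiSeq 4000). Fitness is a variant's read proportion after selection over that before, normalised to wild type.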

For GUGCCUUGCGCCGGGAAACCACGCAAGGGAUGGUGUCAAAUUCGGCGAAACCUAAGCGCCCGCCCGGGCGUAUGGCAACGCCGAGCCAAGCUUCGGCGCCUGCGCCGAUGGAGGUGUAGCGACUAGACGGCACCCACCUAAGGCUAACGGUAUGGUGAAGGCAUAGUCUAGGGAGGGGCGAAAGUCACACAAACCGG [A111G A120C A145U C150G C169U U176G], which reverse-splicing fitness is on record?
Its reverse-splicing fitness is 0.00422.

Which reverse-splicing fitness does the source give for GUGCCUUGCGCCGGGAAACCACGCAAGGGAUGGUGUCAAAUUCGGCGAAACCUAAGCGCCCGCCCGGGCGUAUGGCAACGCCGAGCCAAGCUUCGGCGCCUGCGCCGAUGGAGGUGUAGCGACUAGACGGCACCCACCUAAGGCUAACGGUAUGGUGAAGGCAUAGUCUAGGGAGAGGCGAAAGUCACACAAACCGG [A111G A120C A145U C150G C169U U176A] here?
The reverse-splicing fitness was 0.0072.

Which reverse-splicing fitness does the source give for GUGCCUUGCGCCGGGAAACCACGCAAGGGAUGGUGUCAAAUUCGGCGAAACCUAAGCGCCCGCCCGGGCGUAUGGCAACGCCGAGCCAAGCUUCGGCGCCUGCGCCGAUGGAGGUGUAGCGACUAGACGGCACCCACCUAAGGCUAACGGUAUGGUGAAGGCAUAGUCUAGGGAGCGGCGAAAGUCACACAAACCGG [A111G A120C A145U C150G C169U U176C] here?
The reverse-splicing fitness was 0.0159.

For GUGCCUUGCGCCGGGAAACCACGCAAGGGAUGGUGUCAAAUUCGGCGAAACCUAAGCGCCCGCCCGGGCGUAUGGCAACGCCGAGCCAAGCUUCGGCGCCUGCGCCGAUGGAGGUGUAGCGACUAGACGGCACCCACCUAAGGCUAACGAUAUGGUGAAGGCAUAGUCUAGGGAGGGGCGAAAGUCACACAAACCGG [A111G A120C A145U C150A C169U U176G], which reverse-splicing fitness is on record?
Its reverse-splicing fitness is 0.00505.

For GUGCCUUGCGCCGGGAAACCACGCAAGGGAUGGUGUCAAAUUCGGCGAAACCUAAGCGCCCGCCCGGGCGUAUGGCAACGCCGAGCCAAGCUUCGGCGCCUGCGCCGAUGGAGGUGUAGCGACUAGACGGCACCCACCUAAGGCUAACGAUAUGGUGAAGGCAUAGUCUAGGGAGAGGCGAAAGUCACACAAACCGG [A111G A120C A145U C150A C169U U176A], which reverse-splicing fitness is on record?
Its reverse-splicing fitness is 0.0204.

Which reverse-splicing fitness does the source give for GUGCCUUGCGCCGGGAAACCACGCAAGGGAUGGUGUCAAAUUCGGCGAAACCUAAGCGCCCGCCCGGGCGUAUGGCAACGCCGAGCCAAGCUUCGGCGCCUGCGCCGAUGGAGGUGUAGCGACUAGACGGCACCCACCUAAGGCUAACGAUAUGGUGAAGGCAUAGUCUAGGGAGCGGCGAAAGUCACACAAACCGG [A111G A120C A145U C150A C169U U176C] here?
The reverse-splicing fitness was 0.0177.

Which reverse-splicing fitness does the source give for GUGCCUUGCGCCGGGAAACCACGCAAGGGAUGGUGUCAAAUUCGGCGAAACCUAAGCGCCCGCCCGGGCGUAUGGCAACGCCGAGCCAAGCUUCGGCGCCUGCGCCGAUGGAGGUGUAGCGACUAGACGGCACCCACCUAAGGCUAACGAUAUGGUGAAGGCAUAGUCCAGGGAGAGGCGAAAGUCACACAAACCGG [A111G A120C A145U C150A U176A] here?
Its reverse-splicing fitness is 0.0685.

With GUGCCUUGCGCCGGGAAACCACGCAAGGGAUGGUGUCAAAUUCGGCGAAACCUAAGCGCCCGCCCGGGCGUAUGGCAACGCCGAGCCAAGCUUCGGCGCCUGCGCCGAUGGAGGUGUAGCGACUAGACGGCACCCACCUAAGGCUAACGAUAUGGUGAAGGCAUAGUCCAGGGAGCGGCGAAAGUCACACAAACCGG [A111G A120C A145U C150A U176C] as the variant, how does the reverse-splicing fitness read?
Its reverse-splicing fitness is 0.0741.

For GUGCCUUGCGCCGGGAAACCACGCAAGGGAUGGUGUCAAAUUCGGCGAAACCUAAGCGCCCGCCCGGGCGUAUGGCAACGCCGAGCCAAGCUUCGGCGCCUGCGCCGAUGGAGGUGUAGCGACUAGACGGCACCCACCUAAGGCUAACGAUAUGGUGAAGGCAUAGUCCAGGGAGGGGCGAAAGUCACACAAACCGG [A111G A120C A145U C150A U176G], which reverse-splicing fitness is on record?
Its reverse-splicing fitness is 0.024.

Which reverse-splicing fitness does the source give for GUGCCUUGCGCCGGGAAACCACGCAAGGGAUGGUGUCAAAUUCGGCGAAACCUAAGCGCCCGCCCGGGCGUAUGGCAACGCCGAGCCAAGCUUCGGCGCCUGCGCCGAUGGAGGUGUAGCGACUAGACGGCACCCACCUAAGGCUAACGUUAUGGUGAAGGCAUAGUCAAGGGAGCGGCGAAAGUCACACAAACCGG [A111G A120C A145U C150U C169A U176C] here?
Its reverse-splicing fitness is 0.00821.

Which reverse-splicing fitness does the source give for GUGCCUUGCGCCGGGAAACCACGCAAGGGAUGGUGUCAAAUUCGGCGAAACCUAAGCGCCCGCCCGGGCGUAUGGCAACGCCGAGCCAAGCUUCGGCGCCUGCGCCGAUGGAGGUGUAGCGACUAGACGGCACCCACCUAAGGCUAACGUUAUGGUGAAGGCAUAGUCAAGGGAGAGGCGAAAGUCACACAAACCGG [A111G A120C A145U C150U C169A U176A] here?
Its reverse-splicing fitness is 0.0122.

With GUGCCUUGCGCCGGGAAACCACGCAAGGGAUGGUGUCAAAUUCGGCGAAACCUAAGCGCCCGCCCGGGCGUAUGGCAACGCCGAGCCAAGCUUCGGCGCCUGCGCCGAUGGAGGUGUAGCGACUAGACGGCACCCACCUAAGGCUAACGUUAUGGUGAAGGCAUAGUCAAGGGAGGGGCGAAAGUCACACAAACCGG [A111G A120C A145U C150U C169A U176G] as the variant, how does the reverse-splicing fitness read?
Its reverse-splicing fitness is 0.00393.

Which reverse-splicing fitness does the source give for GUGCCUUGCGCCGGGAAACCACGCAAGGGAUGGUGUCAAAUUCGGCGAAACCUAAGCGCCCGCCCGGGCGUAUGGCAACGCCGAGCCAAGCUUCGGCGCCUGCGCCGAUGGAGGUGUAGCGACUAGACGGCACCCACCUAAGGCUAACGUUAUGGUGAAGGCAUAGUCGAGGGAGCGGCGAAAGUCACACAAACCGG [A111G A120C A145U C150U C169G U176C] here?
The reverse-splicing fitness was 0.0106.

Which reverse-splicing fitness does the source give for GUGCCUUGCGCCGGGAAACCACGCAAGGGAUGGUGUCAAAUUCGGCGAAACCUAAGCGCCCGCCCGGGCGUAUGGCAACGCCGAGCCAAGCUUCGGCGCCUGCGCCGAUGGAGGUGUAGCGACUAGACGGCACCCACCUAAGGCUAACGUUAUGGUGAAGGCAUAGUCGAGGGAGAGGCGAAAGUCACACAAACCGG [A111G A120C A145U C150U C169G U176A] here?
The reverse-splicing fitness was 0.014.

For GUGCCUUGCGCCGGGAAACCACGCAAGGGAUGGUGUCAAAUUCGGCGAAACCUAAGCGCCCGCCCGGGCGUAUGGCAACGCCGAGCCAAGCUUCGGCGCCUGCGCCGAUGGAGGUGUAGCGACUAGACGGCACCCACCUAAGGCUAACGGUAUGGUGAAGGCAUAGUCGAGGGAGAGGCGAAAGUCACACAAACCGG [A111G A120C A145U C150G C169G U176A], which reverse-splicing fitness is on record?
Its reverse-splicing fitness is 0.00655.
